{
  "source": "paper PMC11436757",
  "about": "“BRCA2 stabilises RAD51 and DMC1 nucleoprotein filaments through a conserved interaction mode” (Nature Communications, 2024)",
  "key": {"[1]": {"biological_target": "T1, DMC1 ΔN (amino-acids 83-340), purified (human, UniProt Q14565 83-340, amine reactive fluorescent dye (Monolith Protein Labelling Kit BLUE-NHS) in the MST only)", "T1 construct": "human DMC1 with its N-terminal domain deleted, amino acids 83-340; Octameric ring in the crystal and in solution; also called DMC1 core; structural core of human DMC1; source: E. coli BL21 (DE3), purified (Ni-NTA, HiTrap Q, TEV cleavage, HiTrap Q, SEC)", "T1 sequence (looked up)": "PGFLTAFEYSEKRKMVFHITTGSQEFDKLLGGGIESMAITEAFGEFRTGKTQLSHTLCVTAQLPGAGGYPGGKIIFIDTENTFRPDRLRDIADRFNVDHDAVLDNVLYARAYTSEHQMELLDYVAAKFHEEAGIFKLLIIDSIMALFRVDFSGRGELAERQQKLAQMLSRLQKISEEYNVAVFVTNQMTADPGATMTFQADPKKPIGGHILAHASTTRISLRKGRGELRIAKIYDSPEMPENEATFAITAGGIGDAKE", "test": "MST; DMC1 ΔN or loop mutant labelled with BLUE-NHS dye, constant at 150 nM; peptide titrated in 1:1 dilutions starting from 750 µM; 10 mM HEPES pH 8.0, 150 mM NaCl, 0.05 % Tween-20; room temperature (~22 °C); affinities derived from initial fluorescence"}, "[2]": {"biological_target": "T2, DMC1 ΔN (Homo sapiens, UniProt Q14565)", "T2 construct": "DMC1 ΔN (83-340) were cloned into pHAT4; His6 (TEV-cleavable) (N, cleaved yes); made in house; host or cells: E. coli BL21 (DE3)", "T2 sequence (Q14565 83-340)": "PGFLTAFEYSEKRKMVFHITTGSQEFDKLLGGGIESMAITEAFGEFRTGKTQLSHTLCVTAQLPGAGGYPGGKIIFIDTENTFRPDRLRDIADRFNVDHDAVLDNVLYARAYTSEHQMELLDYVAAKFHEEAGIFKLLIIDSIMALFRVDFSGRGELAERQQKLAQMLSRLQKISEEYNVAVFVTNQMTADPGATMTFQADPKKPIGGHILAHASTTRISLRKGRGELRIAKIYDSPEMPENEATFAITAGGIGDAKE", "test": "Microscale thermophoresis (MST), BRCA2 peptides and DMC1 ΔN", "assay_type": "binding", "settings": "MST from initial fluorescence; labelled DMC1 ΔN 150 nM; 10 mM HEPES pH 8.0, 150 mM NaCl, 0.05 % Tween-20; ~22 °C; mean, n = 3 independent experiments", "description": "DMC1 ΔN and DMC1 ΔN loop mutant were labelled in 10 mM HEPES pH 8.0, 150 mM NaCl with an amine reactive fluorescent dye (MonolithTM Protein Labelling Kit BLUE-NHS, Nanotemper GmbH). A serial dilution of titrant (peptide) was prepared in 10 mM HEPES pH 8.0, 150 mM NaCl, 0.05 % Tween-20. The concentration of labelled DMC1 ΔN or DMC1 ΔN loop mutant were constant at 150 nM and the concentration of the interacting peptide was titrated in 1:1 dilutions starting from 750 µM. An equal volume (10 µl) of the serial dilution and of the diluted labelled DMC1 were mixed and loaded in glass capillaries (MonolithTM NT.115 MST Premium Coated Capillaries, Nanotemper GmbH). The initial fluorescence and the thermophoretic mobility were measured on a Monolith NT.115 system (NanoTemper Technologies). The excitation power was 45 % and MST power was 60 % at room temperature (~22 °C). Laser on and off times were set at 5 and 30 seconds, respectively. Data analysis was performed with NT Affinity Analysis software.\nAs a change in initial fluorescence was detected, SDS denaturation (SD) tests were performed according to the manufacturer’s instructions to determine whether these changes were ligand-induced and whether the data could therefore be used to derive affinity measurements. Briefly, 7 µl of the samples containing the three highest and three lowest concentrations of peptide were mixed with 7 µl of denaturation buffer (4 % SDS, 40 mM DTT). After incubating each for 5 minutes at 95 °C to denature the proteins and subject to brief centrifugation, the samples were loaded onto Premium Coated Capillaries and their initial fluorescence measurements recorded. […] Initial fluorescence readings were used to derive binding affinities."}, "[3]": {"biological_target": "the molecule itself", "test": "SEC-MALS; Superdex 200 Increase 10/300 GL, 20 mM Tris pH 8.0, 150 mM KCl, 2 mM DTT; the loop mutant also by SEC-SAXS"}},
  "note": "Read-outs that look alike come from different tables or passages of the source. No end group written: not given here.",
  "data": [
    {"molecule": "BRCA2 Ex27 peptide (amino acids 3270-3315) (from UniProt P51587 3270-3315)", "values": [
      {"measurement": "Kd", "setting": "[1]", "result": "> 96", "unit": "µM"}
    ]},
    {"molecule": "RPTKVFVPPFKTKS [Ex14-Tr]", "values": [
      {"measurement": "Kd", "setting": "[2]", "result": 35.7, "unit": "µM"}
    ]},
    {"molecule": "RPTKVFVPPFKTKS (human BRCA2 Ex14 truncated, amino acids 2401-2414; also called truncated Ex14; source: synthetic peptide (Severn Biotech))", "note": "[BRCA2 Ex14-Tr peptide (amino acids 2401-2414)]", "values": [
      {"measurement": "Kd", "setting": "[1]; both partners purified", "result": 36, "unit": "µM"}
    ]},
    {"molecule": "ATRNEKMRHLITTGRPTKVFVPPFKTKSHFHRVE (peptide, UniProt P51587 2387-2420, looked up, human BRCA2 exon 14 PhePP region, amino acids 2387-2420; source: E. coli BL21 (DE3), purified (Ni-NTA, HiTrap Q, TEV cleavage, HiTrap SP, SEC))", "note": "[BRCA2 Ex14 (amino acids 2387-2420), purified]", "values": [
      {"measurement": "Kd", "setting": "[1]; both partners purified", "result": "~30", "unit": "µM"}
    ]},
    {"molecule": "DMC1 ΔN loop mutant, purified (domain or fragment, human, UniProt Q14565 83-340, looked up, amine reactive fluorescent dye (Monolith Protein Labelling Kit BLUE-NHS) in the MST only, The purification of the mutant is not described; probably as for DMC1 ΔN (His6 tag cleaved)) PGFLTAFEYSEKRKMVFHITTGSQEFDKLLGGGIESMAITEAFGEFRTGKTQLSHTLCVTAQLPIDRGGGEGKIIFIDTENTFRPDRLRDIADRFGLSGSDVLDNVLYARAYTSEHQMELLDYVAAKFHEEAGIFKLLIIDSIMALFRVDFSGRGELAERQQKLAQMLSRLQKISEEYNVAVFVTNQMTADPGATMTFQADPKKPIGGHILAHASTTRISLRKGRGELRIAKIYDSPEMPENEATFAITAGGIGDAKE", "values": [
      {"measurement": "stoichiometry N", "setting": "[3]", "result": 8}
    ]},
    {"molecule": "His-DMC1 ΔN V179E mutant (domain or fragment, human, UniProt Q14565 83-340, looked up, human DMC1 ΔN (83-340) with V179E, cloned into pHAT4; His tag named on the protein in the pull-down; also called His6-DMC1 mutant; source: E. coli, in lysate (pull-down); purified for SEC-MALS (purification not described)) PGFLTAFEYSEKRKMVFHITTGSQEFDKLLGGGIESMAITEAFGEFRTGKTQLSHTLCVTAQLPGAGGYPGGKIIFIDTENTFRPDRLRDIADRFNEDHDAVLDNVLYARAYTSEHQMELLDYVAAKFHEEAGIFKLLIIDSIMALFRVDFSGRGELAERQQKLAQMLSRLQKISEEYNVAVFVTNQMTADPGATMTFQADPKKPIGGHILAHASTTRISLRKGRGELRIAKIYDSPEMPENEATFAITAGGIGDAKE", "values": [
      {"measurement": "stoichiometry N", "setting": "[3]", "result": 8}
    ]}
  ]
}
